Laboratory results taken from patent publication CN112048019A (LUNAN PHARMACEUTICAL GROUP CORP, dated 2020).

Columns and labels:
CD47-his蛋白 = CD47-his蛋白 (human); experiment: screening ELISA of hybridoma supernatant on coated CD47-his
重组CD47-Fc融合蛋白 = biological target: T1, 重组CD47-Fc融合蛋白 (human, UniProt Q08722 19-139, limits assumed); experiment: competition ELISA: CD47-Fc coated, antibody blocks binding of SIRPα-His, anti-His-HRP detection
T1 construct: not shown: Fc part

[1] = biological target: CD47蛋白 (analyte in the ForteBio assay) (human, UniProt Q08722 19-139, limits assumed); experiment: BLI (ForteBio), antibody captured on Protein A sensor, CD47 protein in solution at 6 concentrations
Chain of CD47蛋白 (analyte in the ForteBio assay) (Q08722 19-139 limits assumed): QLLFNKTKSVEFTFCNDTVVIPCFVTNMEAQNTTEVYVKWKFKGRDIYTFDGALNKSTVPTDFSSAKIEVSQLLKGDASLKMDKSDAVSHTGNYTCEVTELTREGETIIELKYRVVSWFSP

Chain of CD47-his蛋白 (human) (chain, as listed by the source limits assumed): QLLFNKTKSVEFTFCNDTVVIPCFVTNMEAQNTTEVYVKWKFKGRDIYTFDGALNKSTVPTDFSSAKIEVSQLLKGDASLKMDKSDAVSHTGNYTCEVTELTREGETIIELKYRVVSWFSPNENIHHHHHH
T1 sequence (Q08722 19-139 limits assumed): as the sequence (Q08722 19-139 limits assumed) above

binding result (CD47-his蛋白): binds
EC50 (重组CD47-Fc融合蛋白): 170 pM
Kd [1]: 12.9 pM
koff [1]: 1.1e-05 s⁻¹
kon [1]: 853000 M⁻¹ s⁻¹
B1: 抗CD47单克隆抗体3D8 (杂交瘤细胞株3D8, CGMCC No:17293) (antibody, V domains shown)
VH: EVKLQESGAELMKPGASVKISCKATGYTFSRYWIEWVKQRPGHGLEWIGDILPGTSNTNYNEKFKGKATFTADSSSNTAYMQLSSLTSEDSAVYYCARRGLLRFDCWGQGTTVTVSS
VL: DIQLTQSPAIMSASPGEKVTMTCRASSSVSSSYLHWYQQKSGASPKLWIYSSSTLASGVPARFSGSGSGTSYSLTISSVEAEDAATYYCQQYSGYPLTFGSGTKLGIKR
